{"source": "FireProtDB (doi:10.1074/jbc.m102741200)", "parents": {"B1": {"name": "Alpha-amylase, P29957 (parent)", "chain": "MKLNKIITTAGLSLGLLLPSIATATPTTFVHLFEWNWQDVAQECEQYLGPKGYAAVQVSPPNEHITGSQWWTRYQPVSYELQSRGGNRAQFIDMVNRCSAAGVDIYVDTLINHMAAGSGTGTAGNSFGNKSFPIYSPQDFHESCTINNSDYGNDRYRVQNCELVGLADLDTASNYVQNTIAAYINDLQAIGVKGFRFDASKHVAASDIQSLMAKVNGSPVVFQEVIDQGGEAVGASEYLSTGLVTEFKYSTELGNTFRNGSLAWLSNFGEGWGFMPSSSAVVFVDNHDNQRGHGGAGNVITFEDGRLYDLANVFMLAYPYGYPKVMSSYDFHGDTDAGGPNVPVHNNGNLECFASNWKCEHRWSYIAGGVDFRNNTADNWAVTNWWDNTNNQISFGRGSSGHMAINKEDSTLTATVQTDMASGQYCNVLKGELSADAKSCSGEVITVNSDGTINLNIGAWDAMAIHKNAKLNTSSASSTESDWQRTVIFINAQTQSGQDMFIRGGIDHAYANANLGRNCQTSNFECAMPIRHNNLKNVTTSPWKANDNYLDWYGIENGQSSEAEGSATDWTTNVWPAGWGAEKTVNTDGFGVTPLNIWGEHYWMLDVDMDCSKAVNGWFELKAFIKNGQGWETAIAQDNAPYTSTNHMAQCGKINKFEFNNSGVVIRSF"}}, "note": "Several values for one entry are separate records, joined by “and”; a condition that tells them apart may be missing. Equal entries are not always repeated."}
{"variants_of": "B1", "details": "Pseudoalteromonas haloplanktis; pH 7.2; Thermal; DSC; MOPS 30 mM; NaCl 50 mM; reversible: yes(76 %); structure 1AQH; whole UniProt chain shown", "units": {"Tm": "°C", "unfolding enthalpy (calorimetric)": "kcal/mol", "unfolding enthalpy (van 't Hoff)": "kcal/mol"}}
{"variant": "E303W", "Tm": 41.4, "unfolding enthalpy (calorimetric)": 186, "unfolding enthalpy (van 't Hoff)": 234}
{"variants_of": "B1", "details": "Pseudoalteromonas haloplanktis; pH 7.2; Thermal; DSC; MOPS 30 mM; NaCl 50 mM; transition: 3; reversible: yes(85 %); structure 1AQH; whole UniProt chain shown"}
{"variant": "T256V", "Tm": "42.7 °C and 45.7 °C", "unfolding enthalpy (calorimetric)": "102 kcal/mol and 104 kcal/mol", "unfolding enthalpy (van 't Hoff)": "114 kcal/mol and 202 kcal/mol"}
{"variants_of": "B1", "details": "Pseudoalteromonas haloplanktis; pH 7.2; Thermal; DSC; MOPS 30 mM; NaCl 50 mM; reversible: yes(60 %); structure 1AQH; whole UniProt chain shown", "units": {"Tm": "°C", "unfolding enthalpy (calorimetric)": "kcal/mol", "unfolding enthalpy (van 't Hoff)": "kcal/mol"}}
{"variant": "V220F", "Tm": 45.4, "unfolding enthalpy (calorimetric)": 234, "unfolding enthalpy (van 't Hoff)": 296}
{"variants_of": "B1", "details": "Pseudoalteromonas haloplanktis; pH 7.2; Thermal; DSC; MOPS 30 mM; NaCl 50 mM; reversible: yes(96 %); structure 1AQH; whole UniProt chain shown", "units": {"Tm": "°C", "unfolding enthalpy (calorimetric)": "kcal/mol", "unfolding enthalpy (van 't Hoff)": "kcal/mol"}}
{"variant": "R88E", "Tm": 42.6, "unfolding enthalpy (calorimetric)": 236, "unfolding enthalpy (van 't Hoff)": 112}
{"variants_of": "B1", "details": "Pseudoalteromonas haloplanktis; pH 7.2; Thermal; DSC; MOPS 30 mM; NaCl 50 mM; reversible: yes(91 %); structure 1AQH; whole UniProt chain shown", "units": {"Tm": "°C", "unfolding enthalpy (calorimetric)": "kcal/mol", "unfolding enthalpy (van 't Hoff)": "kcal/mol"}}
{"variant": "N174D V220F", "Tm": 46.4, "unfolding enthalpy (calorimetric)": 272, "unfolding enthalpy (van 't Hoff)": 271}
{"variants_of": "B1", "details": "Pseudoalteromonas haloplanktis; pH 7.2; Thermal; DSC; MOPS 30 mM; NaCl 50 mM; transition: 3; reversible: yes(64 %); structure 1AQH; whole UniProt chain shown"}
{"variant": "Q188I", "Tm": "42.7 °C and 45.2 °C", "unfolding enthalpy (calorimetric)": "87 kcal/mol and 117 kcal/mol", "unfolding enthalpy (van 't Hoff)": "117 kcal/mol and 240 kcal/mol"}
{"variants_of": "B1", "details": "Pseudoalteromonas haloplanktis; pH 7.2; Thermal; DSC; MOPS 30 mM; NaCl 50 mM; transition: 3; reversible: yes(95 %); structure 1AQH; whole UniProt chain shown"}
{"variant": "M403V", "unfolding enthalpy (calorimetric)": "127 kcal/mol and 84 kcal/mol", "unfolding enthalpy (van 't Hoff)": "96 kcal/mol and 137 kcal/mol"}
{"variants_of": "B1", "details": "Pseudoalteromonas haloplanktis; pH 7.2; Thermal; DSC; MOPS 30 mM; NaCl 50 mM; reversible: yes(97 %); structure 1AQH; whole UniProt chain shown", "units": {"Tm": "°C", "unfolding enthalpy (calorimetric)": "kcal/mol", "unfolding enthalpy (van 't Hoff)": "kcal/mol"}}
{"variant": "N174D", "Tm": 44.8, "unfolding enthalpy (calorimetric)": 271, "unfolding enthalpy (van 't Hoff)": 240}
{"variants_of": "B1", "details": "Pseudoalteromonas haloplanktis; pH 7.2; Thermal; DSC; MOPS 30 mM; NaCl 50 mM; transition: 3; reversible: yes(30 %); structure 1AQH; whole UniProt chain shown"}
{"variant": "N312V", "unfolding enthalpy (calorimetric)": "88 kcal/mol and 59 kcal/mol", "unfolding enthalpy (van 't Hoff)": "133 kcal/mol and 114 kcal/mol"}
{"variants_of": "B1", "details": "Pseudoalteromonas haloplanktis; pH 7.2; Thermal; DSC; MOPS 30 mM; NaCl 50 mM; reversible: yes(81 %); structure 1AQH; whole UniProt chain shown", "units": {"Tm": "°C", "unfolding enthalpy (calorimetric)": "kcal/mol", "unfolding enthalpy (van 't Hoff)": "kcal/mol"}}
{"variant": "L243R", "Tm": 42.5, "unfolding enthalpy (calorimetric)": 217, "unfolding enthalpy (van 't Hoff)": 187}
{"variants_of": "B1", "details": "Pseudoalteromonas haloplanktis; pH 7.2; Thermal; DSC; MOPS 30 mM; NaCl 50 mM; transition: 3; reversible: yes(51 %); structure 1AQH; whole UniProt chain shown", "units": {"Tm": "°C", "unfolding enthalpy (calorimetric)": "kcal/mol", "unfolding enthalpy (van 't Hoff)": "kcal/mol"}}
{"variant": "Q188I V220F", "Tm": 44.7, "unfolding enthalpy (calorimetric)": 83, "unfolding enthalpy (van 't Hoff)": 121}
{"variants_of": "B1", "details": "Pseudoalteromonas haloplanktis; pH 7.2; Thermal; DSC; MOPS 30 mM; NaCl 50 mM; reversible: yes(25 %); structure 1AQH; whole UniProt chain shown", "units": {"Tm": "°C", "unfolding enthalpy (calorimetric)": "kcal/mol", "unfolding enthalpy (van 't Hoff)": "kcal/mol"}}
{"variant": "N36R", "Tm": 43.3, "unfolding enthalpy (calorimetric)": 193, "unfolding enthalpy (van 't Hoff)": 231}
